# Numbered stars: 1 amine (or outer) side, 2 acyl side, 3 side chain; on linkers, the order of the positions; unused ones are H or OH. Bridge positions count the residues as written; N and C are the ends. Square brackets hold non-standard residues; d marks the D form. Side chains are listed from the residue outwards. Ends that are not written are not given here. * marks the point of attachment. C20 diacid = O=C(O)CCCCCCCCCCCCCCCCCCC(=O)*; γGlu = O=C(O)[C@H](CCC(=O)[*:2])N[*:1]
# T1: human calcitonin receptor (human, UniProt P30988 25-474)
# T1 sequence (looked up): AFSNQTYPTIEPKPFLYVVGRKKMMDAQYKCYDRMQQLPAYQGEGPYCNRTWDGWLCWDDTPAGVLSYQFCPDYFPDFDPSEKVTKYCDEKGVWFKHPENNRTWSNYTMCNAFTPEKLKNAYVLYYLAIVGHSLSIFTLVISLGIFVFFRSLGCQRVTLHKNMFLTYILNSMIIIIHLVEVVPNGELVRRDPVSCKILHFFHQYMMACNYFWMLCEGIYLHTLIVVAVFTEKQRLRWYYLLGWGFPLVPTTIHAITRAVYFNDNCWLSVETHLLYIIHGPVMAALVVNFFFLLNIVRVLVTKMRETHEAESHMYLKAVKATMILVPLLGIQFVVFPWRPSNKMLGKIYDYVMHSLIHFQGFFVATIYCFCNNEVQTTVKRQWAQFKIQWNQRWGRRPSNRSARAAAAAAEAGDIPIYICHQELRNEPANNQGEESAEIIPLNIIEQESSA
# B1: N^ε1-[(4S)-4-carboxy-4-(19-carboxynonadecanoylamino)butanoyl]-[Glu14,Arg17,Pro21,Pro27,Arg34,Glu35]-h-amylin (peptide)
# peptide: K([γGlu-C20 diacid])CNTATCATQRLAEFLRHSSPNFGAIPSSTNVGRETY-NH2
# modifications: disulfide 2-7; N-terminus assumed
# SMILES: CC[C@H](C)[C@H](NC(=O)[C@H](C)NC(=O)CNC(=O)[C@H](Cc1ccccc1)NC(=O)[C@H](CC(N)=O)NC(=O)[C@@H]1CCCN1C(=O)[C@H](CO)NC(=O)[C@H](CO)NC(=O)[C@H](Cc1c[nH]cn1)NC(=O)[C@H](CCCNC(=N)N)NC(=O)[C@H](CC(C)C)NC(=O)[C@H](Cc1ccccc1)NC(=O)[C@H](CCC(=O)O)NC(=O)[C@H](C)NC(=O)[C@H](CC(C)C)NC(=O)[C@H](CCCNC(=N)N)NC(=O)[C@H](CCC(N)=O)NC(=O)[C@@H](NC(=O)[C@H](C)NC(=O)[C@@H]1CSSC[C@H](NC(=O)[C@@H](N)CCCCNC(=O)CC[C@H](NC(=O)CCCCCCCCCCCCCCCCCCC(=O)O)C(=O)O)C(=O)N[C@@H](CC(N)=O)C(=O)N[C@@H]([C@@H](C)O)C(=O)N[C@@H](C)C(=O)N[C@@H]([C@@H](C)O)C(=O)N1)[C@@H](C)O)C(=O)N1CCC[C@H]1C(=O)N[C@@H](CO)C(=O)N[C@@H](CO)C(=O)N[C@H](C(=O)N[C@@H](CC(N)=O)C(=O)N[C@H](C(=O)NCC(=O)N[C@@H](CCCNC(=N)N)C(=O)N[C@@H](CCC(=O)O)C(=O)N[C@H](C(=O)N[C@@H](Cc1ccc(O)cc1)C(N)=O)[C@@H](C)O)C(C)C)[C@@H](C)O
# notes: synthetic peptide amide
# B2: N^ε1-[(4S)-4-carboxy-4-(19-carboxynonadecanoylamino)butanoyl]-[Glu14,Arg17,Pro21,Pro27,His34,Glu35]-h-amylin (peptide)
# peptide: K([γGlu-C20 diacid])CNTATCATQRLAEFLRHSSPNFGAIPSSTNVGHETY-NH2
# modifications: disulfide 2-7; N-terminus assumed
# SMILES: CC[C@H](C)[C@H](NC(=O)[C@H](C)NC(=O)CNC(=O)[C@H](Cc1ccccc1)NC(=O)[C@H](CC(N)=O)NC(=O)[C@@H]1CCCN1C(=O)[C@H](CO)NC(=O)[C@H](CO)NC(=O)[C@H](Cc1c[nH]cn1)NC(=O)[C@H](CCCNC(=N)N)NC(=O)[C@H](CC(C)C)NC(=O)[C@H](Cc1ccccc1)NC(=O)[C@H](CCC(=O)O)NC(=O)[C@H](C)NC(=O)[C@H](CC(C)C)NC(=O)[C@H](CCCNC(=N)N)NC(=O)[C@H](CCC(N)=O)NC(=O)[C@@H](NC(=O)[C@H](C)NC(=O)[C@@H]1CSSC[C@H](NC(=O)[C@@H](N)CCCCNC(=O)CC[C@H](NC(=O)CCCCCCCCCCCCCCCCCCC(=O)O)C(=O)O)C(=O)N[C@@H](CC(N)=O)C(=O)N[C@@H]([C@@H](C)O)C(=O)N[C@@H](C)C(=O)N[C@@H]([C@@H](C)O)C(=O)N1)[C@@H](C)O)C(=O)N1CCC[C@H]1C(=O)N[C@@H](CO)C(=O)N[C@@H](CO)C(=O)N[C@H](C(=O)N[C@@H](CC(N)=O)C(=O)N[C@H](C(=O)NCC(=O)N[C@@H](Cc1c[nH]cn1)C(=O)N[C@@H](CCC(=O)O)C(=O)N[C@H](C(=O)N[C@@H](Cc1ccc(O)cc1)C(N)=O)[C@@H](C)O)C(C)C)[C@@H](C)O
# notes: synthetic peptide amide; also called compound 107
# B3: N^ε1-[(4S)-4-carboxy-4-(19-carboxynonadecanoylamino)butanoyl]-[Glu14,Arg17,Pro21,Pro27,Pro34,His35]-h-amylin (peptide)
# peptide: K([γGlu-C20 diacid])CNTATCATQRLAEFLRHSSPNFGAIPSSTNVGPHTY-NH2
# modifications: disulfide 2-7
# notes: synthetic peptide amide
# B4: N^ε1-[(4S)-4-carboxy-4-(19-carboxynonadecanoylamino)butanoyl]-[Glu14,Arg17,Pro21,Pro27,Pro34,Arg35]-h-amylin (peptide)
# peptide: K([γGlu-C20 diacid])CNTATCATQRLAEFLRHSSPNFGAIPSSTNVGPRTY-NH2
# modifications: disulfide 2-7; N-terminus assumed
# SMILES: CC[C@H](C)[C@H](NC(=O)[C@H](C)NC(=O)CNC(=O)[C@H](Cc1ccccc1)NC(=O)[C@H](CC(N)=O)NC(=O)[C@@H]1CCCN1C(=O)[C@H](CO)NC(=O)[C@H](CO)NC(=O)[C@H](Cc1c[nH]cn1)NC(=O)[C@H](CCCNC(=N)N)NC(=O)[C@H](CC(C)C)NC(=O)[C@H](Cc1ccccc1)NC(=O)[C@H](CCC(=O)O)NC(=O)[C@H](C)NC(=O)[C@H](CC(C)C)NC(=O)[C@H](CCCNC(=N)N)NC(=O)[C@H](CCC(N)=O)NC(=O)[C@@H](NC(=O)[C@H](C)NC(=O)[C@@H]1CSSC[C@H](NC(=O)[C@@H](N)CCCCNC(=O)CC[C@H](NC(=O)CCCCCCCCCCCCCCCCCCC(=O)O)C(=O)O)C(=O)N[C@@H](CC(N)=O)C(=O)N[C@@H]([C@@H](C)O)C(=O)N[C@@H](C)C(=O)N[C@@H]([C@@H](C)O)C(=O)N1)[C@@H](C)O)C(=O)N1CCC[C@H]1C(=O)N[C@@H](CO)C(=O)N[C@@H](CO)C(=O)N[C@H](C(=O)N[C@@H](CC(N)=O)C(=O)N[C@H](C(=O)NCC(=O)N1CCC[C@H]1C(=O)N[C@@H](CCCNC(=N)N)C(=O)N[C@H](C(=O)N[C@@H](Cc1ccc(O)cc1)C(N)=O)[C@@H](C)O)C(C)C)[C@@H](C)O
# notes: synthetic peptide amide
# B5: N^ε1-[(4S)-4-carboxy-4-[[(4S)-4-carboxy-4-(19-carboxynonadecanoylamino)butanoyl]amino]butanoyl]-[Asp14,Arg17,Pro21,Pro27,Pro34,Arg35]-h-amylin (peptide)
# peptide: K([γGlu-γGlu-C20 diacid])CNTATCATQRLADFLRHSSPNFGAIPSSTNVGPRTY-NH2
# modifications: disulfide 2-7
# notes: synthetic peptide amide; also called compound 130
# B6: N^ε1-[(4S)-4-carboxy-4-[[(4S)-4-carboxy-4-(19-carboxynonadecanoylamino)butanoyl]amino]butanoyl]-[Asp14,Arg17,Pro21,Pro27,Pro34,Glu35]-h-amylin (peptide)
# peptide: K([γGlu-γGlu-C20 diacid])CNTATCATQRLADFLRHSSPNFGAIPSSTNVGPETY-NH2
# modifications: disulfide 2-7
# notes: synthetic peptide amide
# B7: N^ε1-[(4S)-4-carboxy-4-(19-carboxynonadecanoylamino)butanoyl]-[Glu14,Arg17,Pro21,Pro27,His35]-h-amylin (peptide)
# peptide: K([γGlu-C20 diacid])CNTATCATQRLAEFLRHSSPNFGAIPSSTNVGSHTY-NH2
# modifications: disulfide 2-7; N-terminus assumed
# SMILES: CC[C@H](C)[C@H](NC(=O)[C@H](C)NC(=O)CNC(=O)[C@H](Cc1ccccc1)NC(=O)[C@H](CC(N)=O)NC(=O)[C@@H]1CCCN1C(=O)[C@H](CO)NC(=O)[C@H](CO)NC(=O)[C@H](Cc1c[nH]cn1)NC(=O)[C@H](CCCNC(=N)N)NC(=O)[C@H](CC(C)C)NC(=O)[C@H](Cc1ccccc1)NC(=O)[C@H](CCC(=O)O)NC(=O)[C@H](C)NC(=O)[C@H](CC(C)C)NC(=O)[C@H](CCCNC(=N)N)NC(=O)[C@H](CCC(N)=O)NC(=O)[C@@H](NC(=O)[C@H](C)NC(=O)[C@@H]1CSSC[C@H](NC(=O)[C@@H](N)CCCCNC(=O)CC[C@H](NC(=O)CCCCCCCCCCCCCCCCCCC(=O)O)C(=O)O)C(=O)N[C@@H](CC(N)=O)C(=O)N[C@@H]([C@@H](C)O)C(=O)N[C@@H](C)C(=O)N[C@@H]([C@@H](C)O)C(=O)N1)[C@@H](C)O)C(=O)N1CCC[C@H]1C(=O)N[C@@H](CO)C(=O)N[C@@H](CO)C(=O)N[C@H](C(=O)N[C@@H](CC(N)=O)C(=O)N[C@H](C(=O)NCC(=O)N[C@@H](CO)C(=O)N[C@@H](Cc1c[nH]cn1)C(=O)N[C@H](C(=O)N[C@@H](Cc1ccc(O)cc1)C(N)=O)[C@@H](C)O)C(C)C)[C@@H](C)O
# notes: synthetic peptide amide
# B8: N^ε1-[(4S)-4-carboxy-4-[[(4S)-4-carboxy-4-(19-carboxynonadecanoylamino)butanoyl]amino]butanoyl]-[Arg17,Pro21,Pro27,Pro31,Pro34,Arg35]-h-amylin (peptide)
# peptide: K([γGlu-γGlu-C20 diacid])CNTATCATQRLANFLRHSSPNFGAIPSSTPVGPRTY-NH2
# modifications: disulfide 2-7; N-terminus assumed
# SMILES: CC[C@H](C)[C@H](NC(=O)[C@H](C)NC(=O)CNC(=O)[C@H](Cc1ccccc1)NC(=O)[C@H](CC(N)=O)NC(=O)[C@@H]1CCCN1C(=O)[C@H](CO)NC(=O)[C@H](CO)NC(=O)[C@H](Cc1c[nH]cn1)NC(=O)[C@H](CCCNC(=N)N)NC(=O)[C@H](CC(C)C)NC(=O)[C@H](Cc1ccccc1)NC(=O)[C@H](CC(N)=O)NC(=O)[C@H](C)NC(=O)[C@H](CC(C)C)NC(=O)[C@H](CCCNC(=N)N)NC(=O)[C@H](CCC(N)=O)NC(=O)[C@@H](NC(=O)[C@H](C)NC(=O)[C@@H]1CSSC[C@H](NC(=O)[C@@H](N)CCCCNC(=O)CC[C@H](NC(=O)CC[C@H](NC(=O)CCCCCCCCCCCCCCCCCCC(=O)O)C(=O)O)C(=O)O)C(=O)N[C@@H](CC(N)=O)C(=O)N[C@@H]([C@@H](C)O)C(=O)N[C@@H](C)C(=O)N[C@@H]([C@@H](C)O)C(=O)N1)[C@@H](C)O)C(=O)N1CCC[C@H]1C(=O)N[C@@H](CO)C(=O)N[C@@H](CO)C(=O)N[C@H](C(=O)N1CCC[C@H]1C(=O)N[C@H](C(=O)NCC(=O)N1CCC[C@H]1C(=O)N[C@@H](CCCNC(=N)N)C(=O)N[C@H](C(=O)N[C@@H](Cc1ccc(O)cc1)C(N)=O)[C@@H](C)O)C(C)C)[C@@H](C)O
# notes: synthetic peptide amide
# B9: N^ε1-[(4S)-4-carboxy-4-[[(4S)-4-carboxy-4-(19-carboxynonadecanoylamino)butanoyl]amino]butanoyl]-[D-Asp14,Arg17,Pro21,Pro27,Arg35]-h-amylin (peptide)
# peptide: K([γGlu-γGlu-C20 diacid])CNTATCATQRLA[dD]FLRHSSPNFGAIPSSTNVGSRTY-NH2
# modifications: disulfide 2-7; N-terminus assumed
# SMILES: CC[C@H](C)[C@H](NC(=O)[C@H](C)NC(=O)CNC(=O)[C@H](Cc1ccccc1)NC(=O)[C@H](CC(N)=O)NC(=O)[C@@H]1CCCN1C(=O)[C@H](CO)NC(=O)[C@H](CO)NC(=O)[C@H](Cc1c[nH]cn1)NC(=O)[C@H](CCCNC(=N)N)NC(=O)[C@H](CC(C)C)NC(=O)[C@H](Cc1ccccc1)NC(=O)[C@@H](CC(=O)O)NC(=O)[C@H](C)NC(=O)[C@H](CC(C)C)NC(=O)[C@H](CCCNC(=N)N)NC(=O)[C@H](CCC(N)=O)NC(=O)[C@@H](NC(=O)[C@H](C)NC(=O)[C@@H]1CSSC[C@H](NC(=O)[C@@H](N)CCCCNC(=O)CC[C@H](NC(=O)CC[C@H](NC(=O)CCCCCCCCCCCCCCCCCCC(=O)O)C(=O)O)C(=O)O)C(=O)N[C@@H](CC(N)=O)C(=O)N[C@@H]([C@@H](C)O)C(=O)N[C@@H](C)C(=O)N[C@@H]([C@@H](C)O)C(=O)N1)[C@@H](C)O)C(=O)N1CCC[C@H]1C(=O)N[C@@H](CO)C(=O)N[C@@H](CO)C(=O)N[C@H](C(=O)N[C@@H](CC(N)=O)C(=O)N[C@H](C(=O)NCC(=O)N[C@@H](CO)C(=O)N[C@@H](CCCNC(=N)N)C(=O)N[C@H](C(=O)N[C@@H](Cc1ccc(O)cc1)C(N)=O)[C@@H](C)O)C(C)C)[C@@H](C)O
# notes: synthetic peptide amide
# Molecular target: T1, human calcitonin receptor
# Experiment: cell-based or functional assay
row,Binder,hCTR funct. EC50 (pM)
1,B1,2740
2,B2,2540
3,B3,1450
4,B4,6380
5,B5,7280
6,B6,843
7,B7,5580
8,B8,8660
9,B9,100000
